{"source": "patent US20050152899A1", "about": "“EphA2 agonistic monoclonal antibodies and methods of use thereof” (priority 2002, published 2005)", "key": {"MCF-7^EphA2 cells [1]": {"system": "MCF-7^EphA2 cells", "test": "Colony formation in soft agar, MCF-7^EphA2 cells", "format": "cell-based", "experimental": "(§1) Tumor cells were suspended in soft agar. Colony formation in soft agar was assayed as described in Zelinski et al. (2001, Cancer Res. 61: 2301-6). Antibodies or a control solution (PBS) was included in bottom and top agar solutions. […] Colony formation was scored microscopically using an Olympus CK-3 inverted phase-contrast microscope outfitted with a 40× objective. Clusters containing at least three cells were scored as a positive. The average number of colonies per high-powered field is shown. Ten separate high-power microscopic fields were averaged in each experiment, and the results shown are representative of at least three separate experiments.\n(§2) A549 malignant lung cancer cells were incubated with either 10 μg/ml or 2.5 μg/ml of EA5 or EA2 monoclonal antibodies or a control (PBS). […] Benign MCF-7 breast epithelial tumor cells were converted to malignant cells by the overexpression of EphA2 (MCF-7^EphA2). Both tumor cell types were incubated with either EA5 monoclonal antibodies or a control (PBS). […] Results are reported as colonies per high-powered field (HPF).\n(§3) Growth assays were conducted as follows. MCF-7^neo (control cells) or MCF7^EphA2 cells were seeded in 96-well plates. […] Colony formation in soft agar was performed as previously described (Zelinski et al., 2001, Cancer Res. 61: 2301-6) and scored microscopically, defining clusters of at least three cells as a positive. The data represent the average of ten separate high-power microscopic fields from each sample and representative of at least three separate experiments. Error bars represent the standard error of the mean of at least three different experiments as determined using Microsoft Excel software.\nSensitivity of MCF-7^EphA2 cells to tamoxifen was measured.\nGrowth MCF-7^EphA2 cells which had decreased EphA2 expression levels was assayed in soft agar."}, "MCF-7^EphA2 cells [2]": {"system": "MCF-7^EphA2 cells", "test": "Tumorigenic potential of MCF-7^EphA2 vs MCF-7^neo cells in mammary fat pad under tamoxifen", "format": "in vivo, athymic (nu/nu) mice", "settings": "MCF-7^EphA2 vs control MCF-7^neo; tamoxifen 1 mg oral gavage 6 days per week, supplemental estrogen", "description": "Six to eight week-old athymic (nu/nu) mice were purchased from Harlan Sprague Dawley (Indianapolis, Ind.). When indicated, a controlled release estradiol pellet (0.72 mg 17β-estradiol, 60-day formulation) was injected subcutaneously via a sterile 14-gauge trocar 24 hours prior to tumor implantation and pellets were replaced every 60 days for those experiments spanning >60 days in duration. 1×10^6 MCF-7^neo or MCF7^EphA2 cells were injected into the mammary fat pad under direct visualization. When indicated, tamoxifen (1 mg) was administered by oral gavage 6 days per week."}, "control MCF-7 cells": {"system": "control MCF-7 cells", "test": "Colony formation in soft agar, control MCF-7 cells", "format": "cell-based", "experimental": "as §1, §3\nSensitivity of MCF-7^EphA2 cells to tamoxifen was measured. […]"}, "estrogen receptor": {"system": "estrogen receptor", "test": "Estrogen receptor activity, ERE-TK-CAT reporter", "format": "cell-based", "settings": "control and MCF-7^EphA2 cells, tamoxifen 10^−6 M", "description": "Estrogen receptor activity was measured using ERE-TK-CAT vector (which encodes a single ERE; a generous gift from Dr. Nakshatri, Indiana University School of Medicine) in the unstimulated state, after estradiol (10^−8 M) stimulation and tamoxifen (10^−6 M) inhibition. Cells were plated in phenol red free, charcoal stripped sera for 2 days and transfected with ERE-TK-CAT (5 μg) using calcium phosphate method. The β-galactosidase expression vector RSV/β-galactosidase (2 μg, Dr. Nakshatri's gift) was cotransfected as a control. Fresh media including the appropriate selection drugs were added 24 hours after transfection. Cells were harvested after 24 hours and CAT activity was evaluated as described (Nakshatri et al., 1997, Mol. Cell. Biol. 17: 3629-39)."}, "EphA2 [3]": {"molecular_target": "T1, EphA2 (Homo sapiens, UniProt P29317)", "T1 sequence (P29317 24-976)": "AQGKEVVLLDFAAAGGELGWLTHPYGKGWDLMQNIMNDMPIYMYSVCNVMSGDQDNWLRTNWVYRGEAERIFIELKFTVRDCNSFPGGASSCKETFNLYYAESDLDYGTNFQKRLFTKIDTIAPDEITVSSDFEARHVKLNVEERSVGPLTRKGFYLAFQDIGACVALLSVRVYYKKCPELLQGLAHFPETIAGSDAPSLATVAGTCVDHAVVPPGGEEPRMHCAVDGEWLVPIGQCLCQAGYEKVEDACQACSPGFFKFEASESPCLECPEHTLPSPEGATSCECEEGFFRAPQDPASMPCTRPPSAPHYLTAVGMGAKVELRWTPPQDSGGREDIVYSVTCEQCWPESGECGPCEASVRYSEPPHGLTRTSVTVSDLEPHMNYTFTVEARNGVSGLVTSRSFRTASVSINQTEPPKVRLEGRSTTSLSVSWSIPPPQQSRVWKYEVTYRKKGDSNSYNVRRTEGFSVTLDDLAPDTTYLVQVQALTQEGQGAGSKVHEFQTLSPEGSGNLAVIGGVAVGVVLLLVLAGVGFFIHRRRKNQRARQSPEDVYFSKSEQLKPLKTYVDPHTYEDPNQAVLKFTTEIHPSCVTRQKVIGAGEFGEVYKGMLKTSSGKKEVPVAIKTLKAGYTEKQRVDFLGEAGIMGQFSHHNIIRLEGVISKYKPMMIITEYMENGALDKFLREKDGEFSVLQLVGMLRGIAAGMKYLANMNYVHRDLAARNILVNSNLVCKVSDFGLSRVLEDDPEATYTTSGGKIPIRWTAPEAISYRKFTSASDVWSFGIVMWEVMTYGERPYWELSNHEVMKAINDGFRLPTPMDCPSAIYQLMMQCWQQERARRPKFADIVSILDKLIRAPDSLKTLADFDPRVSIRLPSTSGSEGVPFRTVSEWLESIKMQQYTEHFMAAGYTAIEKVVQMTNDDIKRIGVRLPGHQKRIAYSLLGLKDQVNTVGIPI", "test": "EphA2 tyrosine phosphorylation and degradation in A549 cells (immunoprecipitation / western blot)", "format": "cell-based", "parameters": "endogenous in cells", "settings": "A549 monolayers", "experimental": "Western blot analyses and immunoprecipitations were performed as described previously (Zantek et al., 1999, Cell Growth Diff. 10: 629-38). Briefly, detergent extracts of cell monolayers were extracted in Tris-buffered saline containing 1% Triton X-100 (Sigma, St. Louis, Mo.). After measuring protein concentrations (BioRad, Hercules, Calif.), 1.5 mg of cell lysate was immunoprecipitated, resolved by SDS-PAGE and transferred to nitrocellulose (Protran, Schleicher and Schuell, Keene, N.H.). Antibody binding was detected by enhanced chemiluminescence (Pierce, Rockford, Ill.) and autoradiography (Kodak X-OMAT; Rochester, N.Y.).\nSimilar experiments were conducted with A549 cells. Monolayers of A549 cells were incubated at 37° C. in the presence of EA5 or EA2 or control (PBS) for either 10 minutes (FIGS. 2A-2B) or 5 hours (FIGS. 2C-2D). Cell lysates were then immunoprecipitated with an EphA2-specific antibody (D7), resolved by SDS-PAGE and subjected to western blot analysis with a phosphotyrosine-specific antibody (4G10, purchased from Upstate Biologicals, Inc., Lake Placid, N.Y.) (FIGS. 2A, 2C). The membranes were stripped and re-probed with the EphA2-specific antibody used in the immunoprecipitation (D7) as a loading control (FIGS. 2B, 2D). […] (FIG. 2D)."}, "[4]": {"system": "A549 malignant lung cancer cells", "test": "Colony formation in soft agar, A549 cells", "format": "cell-based", "settings": "10 μg/ml or 2.5 μg/ml, 7 days at 37° C., vs PBS", "experimental": "Tumor cells were suspended in soft agar. Colony formation in soft agar was assayed as described in Zelinski et al. (2001, Cancer Res. 61: 2301-6). Antibodies or a control solution (PBS) was included in bottom and top agar solutions. Cells were suspended in soft agar for 7 days at 37° C. in the presence of purified antibody or control solution (PBS), administered at the time of suspension. Colony formation was scored microscopically using an Olympus CK-3 inverted phase-contrast microscope outfitted with a 40× objective. Clusters containing at least three cells were scored as a positive. The average number of colonies per high-powered field is shown. Ten separate high-power microscopic fields were averaged in each experiment, and the results shown are representative of at least three separate experiments.\nas §2"}, "EphA2 [5]": {"molecular_target": "T1, EphA2", "test": "EphA2 tyrosine phosphorylation and degradation in MDA-MB-231 cells (immunoprecipitation / western blot)", "format": "cell-based", "parameters": "endogenous in cells; host or cells: MDA-MB-231; MCF-10A", "settings": "MDA-MB-231 monolayers", "experimental": "EphA2 antibodies promoted tyrosine phosphorylation and degradation of EphA2 in MDA-MB-231 (FIGS. 1A-1C) cells. Monolayers of cells were incubated in the presence of EA5 (FIGS. 1A-1B, lanes 2, 3) or EA2 (FIGS. 1A-1B, lanes 4, 5) or control (FIGS. 1A-1B, lane 1) for 8 minutes at 37° C. Cell lysates were then immunoprecipitated with an EphA2-specific antibody (D7, purchased from Upstate Biologicals, Inc., Lake Placid, N.Y. and deposited with the American Type Tissue Collection on Dec. 8, 2000, and assigned ATCC number PTA 2755), resolved by SDS-PAGE and subjected to western blot analysis with a phosphotyrosine-specific antibody (4G10, purchased from Upstate Biologicals, Inc., Lake Placid, N.Y.) (FIG. 1A). The membranes were stripped and re-probed with the EphA2-specific antibody used in the immunoprecipitation (D7) as a loading control.\nWestern blot analyses and immunoprecipitations were performed as described previously (Zantek et al., 1999, Cell Growth Diff. 10: 629-38). Briefly, detergent extracts of cell monolayers were extracted in Tris-buffered saline containing 1% Triton X-100 (Sigma, St. Louis, Mo.). […] Antibody binding was detected by enhanced chemiluminescence (Pierce, Rockford, Ill.) and autoradiography (Kodak X-OMAT; Rochester, N.Y.). […]"}, "EphA2 [6]": {"molecular_target": "T1, EphA2", "test": "Immunofluorescent staining of MDA-MB-231 and MCF-10A cells", "format": "binding", "parameters": "endogenous in cells; host or cells: MDA-MB-231; MCF-10A", "excerpt": "The epitope of the EphA2 antibodies were characterized. EA5 and EA2 selectively bind to malignant cells. The anti-EphA2 monoclonal antibodies EA5 and EA2 bind malignant MDA-MB-231 breast epithelial tumor cells (FIGS. 11A-11B) more strongly than benign MCF-10A breast epithelial tumor cells (FIGS. 11C-11D) as shown by immunofluorescent staining. […] The anti-EphA2 monoclonal antibody EA5 identified malignant prostate cancer cells in formalin-fixed, paraffin-embedded archival clinical specimens (FIG. 12).\nEA5 preferentially binds an EphA2 epitope exposed on cancer cells but not non-cancer cells. Non-transformed MCF-10A cells or transformed MDA-MB-231 cells were incubated with 10 μg/ml EA2 at 4° C. for 30 min. prior to fixation in a 3% formalin solution and immunolabeling with fluorophore-conjugated anti-mouse IgG."}, "[7]": {"molecular_target": "T2, EphA2-Ephrin A1-Fc complex (Homo sapiens, UniProt P29317)", "T2 construct": "consisting of the extracellular domain of EphA2 linked to human IgG1 constant region", "T2 sequence (P29317 24-537 limits assumed, one chain of several)": "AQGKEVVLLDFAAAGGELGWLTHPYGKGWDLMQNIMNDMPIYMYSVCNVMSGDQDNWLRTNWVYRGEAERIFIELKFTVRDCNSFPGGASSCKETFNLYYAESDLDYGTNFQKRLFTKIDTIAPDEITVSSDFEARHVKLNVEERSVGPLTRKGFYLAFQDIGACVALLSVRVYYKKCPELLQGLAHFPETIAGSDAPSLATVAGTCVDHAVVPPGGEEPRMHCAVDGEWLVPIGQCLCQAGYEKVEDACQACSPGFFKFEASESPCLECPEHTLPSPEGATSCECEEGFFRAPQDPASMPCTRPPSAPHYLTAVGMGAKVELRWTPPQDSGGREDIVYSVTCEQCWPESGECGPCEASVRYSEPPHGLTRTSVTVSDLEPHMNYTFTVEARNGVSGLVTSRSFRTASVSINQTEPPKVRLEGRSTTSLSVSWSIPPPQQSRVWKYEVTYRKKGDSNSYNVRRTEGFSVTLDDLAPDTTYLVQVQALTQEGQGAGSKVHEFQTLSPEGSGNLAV", "test": "Competition for labeled EA5 on EphA2-Ephrin A1-Fc complex", "format": "binding", "settings": "biotinylated EA5 10 μg/ml, 30 min.", "experimental": "(§4) A microtiter plate was coated with […] Ephrin A1-Fc overnight at 4° C. A fusion protein consisting of the extracellular domain of EphA2 linked to human IgG1 constant region (EphA2-Fc) was incubated with and bound to the immobilized Ephrin A1-Fc. Biotinylated Ephrin A1-Fc or EA5 was incubated with the EphA2-Ephrin A1-Fc complex and amount of binding was measured.\nThe EphA2-Ephrin A1-Fc complex was prepared as described above. Biotinylated EA5 (10 μg/ml) was then incubated with the complex for 30 min. Unlabeled competitor was incubated with EphA2-Ephrin A1-Fc-EA5 complex in the indicated amount. Unlabeled EA5 could displace the labeled EA5 at concentrations of 100 ng/ml or greater."}, "[8]": {"molecular_target": "T2, EphA2-Ephrin A1-Fc complex", "test": "Binding to EphA2-Ephrin A1-Fc complex on microtiter plate", "settings": "EphA2-Fc bound to immobilized Ephrin A1-Fc", "experimental": "as §4"}}}
{"molecule": "C[C@]12CC[C@@H]3c4ccc(O)cc4CC[C@H]3[C@@H]1CC[C@@H]2O", "note": "[estradiol, 17β-estradiol, reference compound]", "values": [{"measurement": "Effect of excess estradiol on tamoxifen inhibition of soft agar colonization", "setting": "MCF-7^EphA2 cells [1]; 1 μM tamoxifen and 1 μM 17β-estradiol, MCF-7 or MCF-7^EphA2 cells (FIG. 8A)", "result": "overcame the inhibitory effects of tamoxifen"}]}
{"molecule": "CC/C(=C(\\c1ccccc1)c1ccc(OCCN(C)C)cc1)c1ccccc1", "note": "[tamoxifen]", "values": [{"measurement": "inhibition at 1 µM", "setting": "MCF-7^EphA2 cells [1]; 336 h, MCF-7^EphA2 cells, 1 μM tamoxifen, 14 days (FIG. 8A), read-out: Inhibition of soft agar colonization", "result": 25, "unit": "%"}, {"measurement": "Decrease in soft agar colonization", "setting": "MCF-7^EphA2 cells [1]; MCF-7^EphA2 cells, tamoxifen 1 μM and/or EA5 10 μg/ml (FIG. 10C)", "result": 25, "unit": "%"}, {"measurement": "Sensitivity of tumorigenic potential to tamoxifen", "setting": "MCF-7^EphA2 cells [2]", "result": "less sensitive to tamoxifen"}, {"measurement": "inhibition at 1 µM", "setting": "control MCF-7 cells; Homo sapiens, MCF7, matched control MCF-7 cells, tamoxifen 1 μM (FIG. 10C), read-out: Inhibition of soft agar colonization", "result": 75, "unit": "%"}, {"measurement": "Reduction of soft agar colonization", "setting": "control MCF-7 cells; control MCF-7 cells, 1 μM tamoxifen, 14 days (FIG. 8A)", "result": "at least 60%"}, {"measurement": "Estrogen receptor activity (CAT)", "setting": "estrogen receptor", "result": "remained sensitive to tamoxifen"}]}
{"molecule": "EA2: EphA2 agonistic monoclonal antibody; hybridoma strain EA2.31, ATCC PTA-4380; VL SEQ ID NO:1, VH SEQ ID NO:5 (antibody, listed as Homo Sapiens, V domains shown) VH: DVKLVESGGGLVKPGGSLKLSCAASGFTFSSYTMSWVRQTPEKRLEWVATISSGGTYTYYPDSVKGRFTISRDNAKNTLYLQMSSLKSEDTAMYYCTREAIFTYWGQGTLVTVSA VL: DIKMTQSPSSMYASLGERVTITCKASQDINNYLSWFQQKPGKSPKTLIYRANRLVDGVPSRFSGSGSGQDYSLTISSLEYEDMGIYYCLKYDEFPYTFGGGTKLEIK", "values": [{"measurement": "EphA2 phosphorylation", "setting": "EphA2 [3]; 10 minutes at 37° C.", "result": "increase in phosphorylation"}, {"measurement": "EphA2 protein degradation", "setting": "EphA2 [3]; 5 hours at 37° C.", "result": "degradation of the EphA2 protein"}, {"measurement": "Cell growth in soft agar (colonies per high-powered field)", "setting": "[4]", "result": "inhibited cell growth in soft agar"}, {"measurement": "EphA2 protein levels", "setting": "EphA2 [5]; 30 μg/ml, 24 hours at 37° C.", "result": "decrease"}, {"measurement": "Levels of EphA2 phosphorylation", "setting": "EphA2 [5]; 8 minutes at 37° C., phosphotyrosine western blot", "result": "increase"}, {"measurement": "Binding to malignant MDA-MB-231 vs benign MCF-10A cells", "setting": "EphA2 [6]", "result": "more strongly"}]}
{"molecule": "Ephrin A1-Fc: Fc form of the EphA2 ligand Ephrin A1, used biotinylated or unlabeled (protein, left off: a dimerising Fc or GST, Fc form of the EphA2 ligand Ephrin A1, used biotinylated or unlabeled) DRHTVFWNSSNPKFRNEDYTIHVQLNDYVDIICPHYEDHSVADAAMEQYILYLVEHEEYQLCQPQSKDQVRWQCNRPSAKHGPEKLSEKFQRFTPFTLGKEFKEGHSYYYISKPIHQHEDRCLRLKVTVSGKITHSPQAHDNPQEKRLAADDPEVRVLHSIGHS", "values": [{"measurement": "Displacement of labeled EA5 by unlabeled competitor", "setting": "[7]", "result": "did not significantly displace labeled EA5"}, {"measurement": "Amount of biotinylated protein bound to EphA2-Ephrin A1-Fc complex", "setting": "[8]", "result": "Very little additional Ephrin A1-Fc bound"}]}
